Biological target: T1, cleavage-site mutated recombinant haptoglobin Hp1S (Q101A, R102A), uncleaved proHp (human)
T1 chain: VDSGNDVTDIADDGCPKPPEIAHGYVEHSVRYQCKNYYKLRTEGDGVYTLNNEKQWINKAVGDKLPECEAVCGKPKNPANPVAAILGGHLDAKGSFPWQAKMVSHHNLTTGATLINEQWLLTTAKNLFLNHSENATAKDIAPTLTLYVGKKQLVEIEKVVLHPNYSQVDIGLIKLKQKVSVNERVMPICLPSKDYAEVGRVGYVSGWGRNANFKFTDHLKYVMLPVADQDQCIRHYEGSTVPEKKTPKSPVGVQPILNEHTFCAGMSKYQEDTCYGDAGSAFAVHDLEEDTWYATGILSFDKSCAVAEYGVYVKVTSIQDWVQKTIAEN
Experiment: non-reducing SDS-PAGE; Coomassie-stained gel of non-reduced protein samples; disulfide-linked dimers and multimers

stoichiometry N: 2
B1: cleavage-site mutated recombinant haptoglobin Hp1S (Q101A, R102A), uncleaved proHp (natural protein)
chain: T1 chain
modifications: Uncleaved single-chain proHp1S with signal peptide removed; paper's Q101/R102 (precursor Hp1 numbering) = Q160/R161 of P00738; disulfide-linked dimer; N-glycosylated; C-terminal 8xHis tag omitted / …
